Test results: patent publication US20110229491A1 (published 2011)

Biological target: T1, MCM5:YFPC fusion protein (Arabidopsis, UniProt O80786 1-727)
T1 construct: BiFC construct expressed in tobacco leaf epidermal cells; not shown: YFPC: fragment with amino acid residues 155-238 of YFP (plasmid pUC-SPYCE)
T1 sequence (looked up): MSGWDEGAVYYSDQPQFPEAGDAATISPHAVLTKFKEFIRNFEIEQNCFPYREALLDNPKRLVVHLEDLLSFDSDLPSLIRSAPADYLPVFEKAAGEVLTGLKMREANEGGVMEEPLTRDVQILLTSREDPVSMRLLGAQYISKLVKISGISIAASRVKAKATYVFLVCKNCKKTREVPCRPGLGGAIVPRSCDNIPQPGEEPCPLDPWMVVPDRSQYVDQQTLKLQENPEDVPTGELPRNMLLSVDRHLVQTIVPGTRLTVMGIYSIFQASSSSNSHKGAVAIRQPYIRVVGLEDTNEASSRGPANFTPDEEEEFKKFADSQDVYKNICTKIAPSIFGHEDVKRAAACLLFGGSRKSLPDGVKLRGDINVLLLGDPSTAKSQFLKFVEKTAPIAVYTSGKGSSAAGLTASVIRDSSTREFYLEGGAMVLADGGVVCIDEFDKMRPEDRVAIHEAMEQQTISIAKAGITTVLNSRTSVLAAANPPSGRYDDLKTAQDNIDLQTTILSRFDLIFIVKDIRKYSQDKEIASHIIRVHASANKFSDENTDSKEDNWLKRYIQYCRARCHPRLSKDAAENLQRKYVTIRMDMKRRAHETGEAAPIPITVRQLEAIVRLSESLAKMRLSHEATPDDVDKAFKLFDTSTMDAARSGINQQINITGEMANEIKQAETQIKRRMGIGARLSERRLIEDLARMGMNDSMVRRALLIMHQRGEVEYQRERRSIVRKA
Experiment: BiFC in tobacco leaf epidermal cells
Experimental: Full-length open reading frames of ETG1 and MCM5 were transferred into the pH7FWG2 destination vector (Karimi et al., 2002) by LR recombination reaction, resulting in ETG1:EGFP and MCM5:EYFP fusion proteins, respectively. BiFC assay was performed as described by Walter et al. (2004). The coding region of ETG1 was amplified with 5′-[…]-3′ (SEQ ID NO:28) and 5′-[…]-3′ (SEQ ID NO:29) primers, and cloned via BamHI-XhoI into the plasmid pUC-SPYNE (Walter et al., 2004), resulting in the plasmid expressed as the ETG1:YFPN fusion protein; the coding region of MCM5 was also obtained with 5′-[…]-3′ (SEQ ID NO:30) and 5′-[…]-3′ (SEQ ID NO:31) primers, and cloned via SpeI-SalI into the plasmid pUC-SPYCE (Walter et al., 2004) to give rise to the plasmid expressed as the MCM5:YFPC fusion protein.
The Agrobacterium strains containing both BiFC constructs were co-infiltrated into tobacco leaves. Epidermal cell layer of tobacco leaves were assayed for fluorescence using confocal laser scanning microscope (Zeiss) two to four days after infiltration. […] As expected, no fluorescence was detected when any combination with empty vectors was introduced into tobacco cells (FIG. 5, Panel C; ETG1-YFPN and YFPC, YFPN and MCM5-YFPC).

- binding result: binds
B1: ETG1:YFPN fusion protein (other, UniProt Q501D5 1-589, looked up)
chain: MGGPAYDCLTNPLGAVRFSFVNALSSGYDPASSVGKDWGVVDLFRHYFSDESAISQVPILDSSSIKWVQPKTLVRFRGMIQDMLGNEFYAGAYKDDSTWRTNKYSDVSQFPEGSSTEIQVWERRLLYCVPVPGKNQWTECSSQELKNRFLDLTGQNREKRVRVDEEMTDSMDSSTLEAGRNGSPFKKMKVGEATSSASESQVPQTSGIPPATSADSLPCLVKIYDSPESDLKLNDVVEFLGVLTFDPIVMMDTDTLDENSDALSEAESVQMPSGKVPRLHCLIHRKLETQHFLHGSSLLPEPKSPQIFKEIRESLMKYLTGLLGNDHIAAQFLLLHLLSKVHGRVDNVAVGKLSLNLIHLNKESMSIFGTQLSGALKSLLPFTQSIPLTIEYLNTASFGPKKDYGINRLMPGVLQIADGTHLILDETELQPGTLNSVGVENANLLKNLLECQKVEYDFQYYKMEMATDVQMLIFSEGKSNIMPADLVLPLQPSQVNSLEVITPETAETWRCYLATCKSLSHSIGQELQQVVENDLVAARQTDRSLGSQDLSRLLTMARMMSVSYGETTLSLEHWQMVLELERLRKERLK
notes: range 1-589;range 1-154; BiFC construct expressed in tobacco leaf epidermal cells; not shown: YFPN: fragment with amino acid residues 1-154 of YFP (plasmid pUC-SPYNE)
